Square brackets hold non-standard residues; d marks the D form. Ends that are not written are not given here. Pra = C#CC[C@H](N)C(=O)O; Az4 = not defined here; PEG = not defined here
T1: LISDAELEAIFD (SEQ ID NO:34)-Az4-PEG-Biotin (Plasmodium falciparum, reading uncertain)
T1 peptide: LISDAELEAIFD-{Az4-PEG-biotin}

B1: RGGIL (SEQ ID NO:5), hit 1 against LDH (peptide)
peptide: [Pra]RGGIL
modifications: triazole (positions not given here); not fully specified (bridges)
notes: On-bead library member; variable region only
B2: ILYWK (SEQ ID NO:7), hit 3 against LDH (peptide)
peptide: [Pra]ILYWK
modifications: triazole (positions not given here); not fully specified (bridges)
notes: as for B1
B3: ELYKY (SEQ ID NO:19), hit 3 against pan pLDH (peptide)
peptide: ELYKY
modifications: triazole (positions not given here); also: Az4 (azide residue) at position 1, ring closed through triazole, places not given here
notes: Secondary ligand; It was found on bead by in situ click with alkyne-modified hevwh in the presence of pfLDH
B4: HWSAN (SEQ ID NO:11) peptide, triazole-cyclized (peptide)
peptide: [Pra]HWSAN
modifications: triazole (positions not given here); also: biotinylated in plate assay, construct not described
notes: Variable region only; The exact biotinylated construct used on the streptavidin plate is not described; also called Hit 6
B5: RCM cyclized version of the HWSAN (SEQ ID NO:11) peptide (peptide)
peptide: HWSAN
modifications: staple (positions not given here); also: RCM between olefin-bearing non-natural residues, places not given here, biotinylated
notes: also called RCM cyclic peptide; one of the RCM cyclized peptides
B6: KKIHL (SEQ ID NO:6), hit 2 against LDH (peptide)
peptide: [Pra]KKIHL
modifications: triazole (positions not given here); not fully specified (bridges)
notes: as for B1
B7: PLKKG (SEQ ID NO:8), hit 4 against LDH (peptide)
peptide: [Pra]PLKKG
modifications: triazole (positions not given here); not fully specified (bridges)
notes: as for B1
B8: YLGHK (SEQ ID NO:14), hit 1 against pan pLDH (peptide)
peptide: YLGHK
modifications: triazole (positions not given here); also: Az4 (azide residue) at position 1, ring closed through triazole, places not given here
notes: as for B3

Legend:
[1] = target: T1, LISDAELEAIFD (SEQ ID …); assay: in situ click bead screen of cyclic library C against LISDAELEAIFD-Az4-PEG-Biotin; hits formed a triazole linkage to the epitope peptide
[2] = target: T2, PfLDH protein (Plasmodium falciparum, UniProt Q27743 2-316); assay: in situ click bead screen of azide-modified cyclic library C with pfLDH and alkyne-modified hevwh anchor; hit found by triazole formation with the primary ligand
T2 construct: also called Plasmodium falciparum LDH protein

[3] = target: T3, GST-PvLDH (Plasmodium berghei, UniProt P84793 1-313); assay: ELISA: 5 uM biotinylated ligand on a streptavidin plate, GST-PvLDH overnight, antiGST-HRP detection (FIG. 10)
T3 construct: Printed as 'whole PvLDH' and 'GST-PvLDH'; also called whole PvLDH protein; not shown: glutathione S-transferase (GST) tag

[4] = target: T2, PfLDH protein; assay: ELISA titration of PfLDH protein on the ligand (FIG. 11)

Row | Binder | binding result [1] | further results
1 | B1 | binds | 
2 | B2 | binds | 
3 | B3 |  | binding result [2]: binds
4 | B4 | binds | binding result [3]: binds
5 | B5 |  | EC50 [4]: 2.5 nM
6 | B6 | binds | 
7 | B7 | binds | 
8 | B8 |  | binding result [2]: binds
